Test results: patent US20050069911A1
Where no end group is shown, it is not given here.

Legend:
[1] = target: antibody P1; assay: peptide competition ELISA
[2] = target: antibody P1; assay: peptide competition ELISA; free peptide against immobilized target peptide for P1
[3] = target: antibody P1; assay: peptide competition ELISA (Example 5): the free peptide, in rising concentration, competes with the plate-bound target peptide for antibody P1; HRP-labelled secondary antibody, absorbance at 450
[4] = target: antibody P1; assay: peptide competition ELISA; free peptide competes with immobilized target peptide for P1
[5] = target: antibody C1; assay: peptide competition ELISA (Example 5): the free peptide, in rising concentration, competes with the plate-bound target peptide for antibody C1; HRP-labelled secondary antibody, absorbance at 450
[6] = target: antibody C1; assay: peptide competition ELISA; free peptide competes with immobilized target peptide for C1
[7] = target: antibody C1; assay: peptide competition ELISA
[8] = target: antibody C1; assay: peptide competition ELISA; free peptide against immobilized target peptide for C1

| Binder | fold higher concentration without competition, against the antigen PET EPAELTDA [1] | IC50 [2] | fold higher concentration without competition, against the antigen PET YEVQGEVF [7] | IC50 [8] | further results |
| --- | --- | --- | --- | --- | --- |
| EPVELTSA [nearest-neighbor 8-mer peptide EPVELTSA] | 25000 fold | > 1000 µM |  |  |  |
| EPAELTDA (not fully specified) [PSA-derived 8-mer PET peptide EPAELTDA] |  |  |  |  | IC50 (read off the curve) [3]: 0.09 µM; IC50 [4]: 0.04 µM |
| DPTQLTDA [nearest-neighbor 8-mer peptide DPTQLTDA] | 25000 fold | > 1000 µM |  |  |  |
| YEVQGEVF [CRP-derived 8-mer PET peptide YEVQGEVF] |  |  |  |  | IC50 (read off the curve) [5]: 0.9 µM; IC50 [6]: 1 µM |
| VEVNGEVF [nearest-neighbor 8-mer peptide VEVNGEVF] |  |  | > 1000 fold | > 1000 µM |  |
| YEVLGEEF [nearest-neighbor 8-mer peptide YEVLGEEF] |  |  | > 1000 fold | > 1000 µM |  |
